Reference: patent US20150210761A1 (SAMSUNG ELECTRONICS, published 2015)

Key:
hAng1 = biological target: T1, hAng1 (human, UniProt Q15389 20-498, limits assumed); assay: SPR, BIAcore T100
T1 construct: Tested by the same SPR set-up as hAng2; the construct is not described; also called human Ang1
T1 sequence (looked up): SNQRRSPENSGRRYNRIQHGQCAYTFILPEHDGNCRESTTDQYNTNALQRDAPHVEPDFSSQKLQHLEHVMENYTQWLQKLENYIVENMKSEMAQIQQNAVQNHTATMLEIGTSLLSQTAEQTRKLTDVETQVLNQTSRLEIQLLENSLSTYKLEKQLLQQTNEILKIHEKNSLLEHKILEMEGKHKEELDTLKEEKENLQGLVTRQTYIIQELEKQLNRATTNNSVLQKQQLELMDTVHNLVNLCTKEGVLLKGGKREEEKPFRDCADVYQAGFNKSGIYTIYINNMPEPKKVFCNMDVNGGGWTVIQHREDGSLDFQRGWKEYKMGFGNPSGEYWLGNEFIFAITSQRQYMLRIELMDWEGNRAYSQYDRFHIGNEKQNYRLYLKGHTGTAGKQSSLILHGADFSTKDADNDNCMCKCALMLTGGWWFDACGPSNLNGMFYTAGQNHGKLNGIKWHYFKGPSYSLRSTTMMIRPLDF

[1] = biological target: T2, recombinant hAng-2 (C-His, R&D Systems) (human, UniProt O15123 19-496); assay: SPR, BIAcore T100; hAng-2 C-His captured on anti-His chip, antibody flowed
T2 construct: Bought protein; Captured on an anti-His antibody chip for SPR; also called human Ang2; not shown: C-terminal His tag
T2 sequence: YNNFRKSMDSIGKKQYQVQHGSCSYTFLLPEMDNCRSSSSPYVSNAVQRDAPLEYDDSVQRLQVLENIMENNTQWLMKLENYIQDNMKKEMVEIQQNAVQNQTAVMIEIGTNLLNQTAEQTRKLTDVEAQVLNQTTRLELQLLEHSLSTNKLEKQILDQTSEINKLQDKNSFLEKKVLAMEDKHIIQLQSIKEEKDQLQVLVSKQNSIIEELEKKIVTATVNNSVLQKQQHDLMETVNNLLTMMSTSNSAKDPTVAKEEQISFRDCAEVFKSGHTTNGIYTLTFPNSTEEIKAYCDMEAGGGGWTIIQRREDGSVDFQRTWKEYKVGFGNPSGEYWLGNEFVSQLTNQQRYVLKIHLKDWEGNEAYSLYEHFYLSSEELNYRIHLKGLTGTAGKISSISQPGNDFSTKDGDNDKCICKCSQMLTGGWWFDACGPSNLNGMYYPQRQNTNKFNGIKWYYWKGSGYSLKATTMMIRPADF
Experimental: To more exactly measure the binding affinity of the anti-Ang2 antibodies to antigen Ang2, the binding affinity of the above antibodies to the antigen was measured by an surface plasmon resonance (SPR) method using BIAcore T100 (GE Healthcare). The SPR method uses refractive index change of light which passes a sensor chip according to the state of materials coated onto the sensor chip, and if an antigen or an antibody is flowed onto a chip coated with the antigen or antibody, it causes changes in refractive index due to their binding and Kd values are thus calculated from the measured values.
First, anti-His antibody was immobilized on a CM5 sensor chip (GE healthcare) up to 8,000 RU levels using a pH 5.0 acetate solution and an amine coupling kit (GE Healthcare). 6 μg/ml of a recombinant hAng-2 (C-His, R&D Systems) protein was flowed onto the chip to be captured at 100 to 200 RU levels.

[2] = biological target: T3, mouse Ang2 (Accession # NP-031452) (R&D Systems) (mouse, UniProt O35608 19-496); assay: ELISA on coated mouse Ang2; 50% binding concentration, which the filing calls Kd
T3 construct: Bought protein coated on the ELISA plate; also called mAng2
T3 sequence (looked up): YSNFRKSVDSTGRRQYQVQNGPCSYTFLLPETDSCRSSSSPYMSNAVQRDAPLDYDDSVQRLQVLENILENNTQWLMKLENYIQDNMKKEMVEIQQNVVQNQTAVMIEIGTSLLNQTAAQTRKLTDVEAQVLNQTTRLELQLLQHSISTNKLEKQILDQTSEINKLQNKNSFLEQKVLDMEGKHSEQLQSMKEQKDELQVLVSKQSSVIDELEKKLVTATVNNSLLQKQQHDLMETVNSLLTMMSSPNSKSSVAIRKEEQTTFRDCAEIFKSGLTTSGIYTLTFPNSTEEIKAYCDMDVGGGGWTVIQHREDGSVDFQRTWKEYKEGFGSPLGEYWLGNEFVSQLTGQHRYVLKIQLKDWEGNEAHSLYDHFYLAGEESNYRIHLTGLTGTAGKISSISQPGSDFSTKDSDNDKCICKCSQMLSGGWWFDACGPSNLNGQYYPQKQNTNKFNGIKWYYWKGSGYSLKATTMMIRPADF
Experimental: An ELISA was conducted to measure the binding affinity of the antibodies prepared in Example 2 to mouse Ang2(mAng2). MaxiSorp™ flat-bottom plate (Nunc) of 96-well was coated with 5-20 μg/ml of mouse Ang2 (Mouse Ang2; Accession # NP_{—}031452) (R&D Systems). Thereafter, the plate was washed five times with 0.05% (v/v) Tween-20-containing PBS (PBST) and then blocked with 1% (v/v) BSA (bovine serum albumin; Sigma)-containing PBS at a room temperature for 2 hour. Each of the anti-Ang2 antibodies was added to each well of the plate at various concentrations, and the plate was allowed to react at a room temperature for 2 hours.
Thereafter, the plate was washed five times with PBST. Then, a HRP-conjugated anti-mouse IgG antibody (Santacruz) diluted in 1% (v/v) BSA-containing PBS at a ratio of 1:1,000 (v/v) was added in an amount of 50 μl to each well to react at a room temperature for 1 hour and then, the plate was washed five times with PBST. Lastly, 100 μl of TMB substrate (Cell Signaling) was added to each well of the plate to induce color development for 3 min. and then, the reaction was ceased by the addition of 100 μl of Stop solution (Cell Signaling) and OD450 values were measured on a plate reader (Molecular Devices).
From the obtained results, 50% binding concentration (Kd) of the anti-Ang2 antibody to Ang2 protein is obtained, thereby measuring the binding intensity of each of the anti-Ang2 antibodies to Ang2.

FLAG-tagged hAng-2 = biological target: T4, FLAG-tagged hAng-2 (human, UniProt O15123 19-496); assay: Ang2:Tie2 competition ELISA; hTie2-Fc coated, 400 ng/ml FLAG-tagged hAng-2, anti-FLAG-HRP detection
T4 sequence: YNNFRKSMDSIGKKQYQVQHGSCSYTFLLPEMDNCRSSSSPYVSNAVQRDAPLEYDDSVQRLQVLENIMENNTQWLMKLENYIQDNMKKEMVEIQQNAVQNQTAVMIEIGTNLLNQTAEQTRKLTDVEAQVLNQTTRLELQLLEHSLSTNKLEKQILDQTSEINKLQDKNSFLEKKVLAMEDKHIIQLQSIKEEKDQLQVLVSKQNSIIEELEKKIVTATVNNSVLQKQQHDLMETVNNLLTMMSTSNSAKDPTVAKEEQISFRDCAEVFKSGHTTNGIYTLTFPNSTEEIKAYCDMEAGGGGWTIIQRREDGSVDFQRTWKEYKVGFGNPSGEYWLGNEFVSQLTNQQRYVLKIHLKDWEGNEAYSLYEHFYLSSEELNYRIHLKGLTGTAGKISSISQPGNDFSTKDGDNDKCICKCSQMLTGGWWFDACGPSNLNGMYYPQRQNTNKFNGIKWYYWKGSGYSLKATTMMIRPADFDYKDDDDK
Experimental: More specifically, MaxiSorp™ flat-bottom plate (Nunc) of 96-well was coated with hTie2-Fc (R&D Systems) which is a protein bound with 4 μg/ml of Fc of human IgG1. After coating, the plate was washed five times with 0.05% (v/v) Tween-20-containing PBS (phosphate buffer saline) and then blocked with 1% (v/v) BSA (bovine serum albumin; Sigma)-containing PBS at a room temperature for 2 hour.
For Ang2:Tie2 competition ELISA, each anti-Ang2 antibody obtained in Example 2 was placed at various concentrations of 400 nM-0.001 nM into each well coated with the hTie-2/Fc fusion protein along with 1% (v/v) BSA and 400 ng/ml of a FLAG-tagged hAng-2 and then, the plate was allowed to react at a room temperature for 2 hours and washed five times with PBST. After that, a HRP-conjugated anti-FLAG antibody (Sigma) diluted in 1% (v/v) BSA-containing PBS at a ratio of 1:5,000 (v/v) was added in an amount of […] to each well to react at a room temperature for 1 hour and then, the plate was washed five times with PBST. Lastly, 100 μl of TMB substrate (Cell Signaling) was added to each well of the plate to induce color development for 3 min. and then, the reaction was ceased by the addition of 100 μl of Stop solution (Cell Signaling) and OD450 values were measured on a plate reader (Molecular Devices).

B1: SAIT-ANG2-AB-m1B6 (antibody, V domains shown)
VH: QIQLVQSGPELKKPGETVKISCKASGYTFTNYGMNWVKQAPGKGLKWMGWINTYTGEPTYADDFKGRFAFSLETSASTAYLQINNLKNEDTATYFCARDHDGYLMDYWGQGTSVTVSS
VL: DIQMTQTTSSLSASLGDRVTISCSTSQGISNYLNWYQQKPDGTVKLLIFYTSSLHSGVPSRFSGSGSGTDYSLTISNLEPEDIATYYCQQYSKLPYTFGGGTKLEIK
notes: also called hybridoma KCLRF-BP-00307
hAng1
  binding result: no binding (tested: 100 nM (highest antibody concentration))
[1]
  Kd: 2.3 nM
[2]
  Kd: 2.1 nM
FLAG-tagged hAng-2
  IC50: 2.89 nM
